Measured values taken from patent US20240165226A1, “COMBINATION TREATMENT OF CD38-EXPRESSING TUMORS” (GENMAB A/S, priority 2006, published 2024).
Entries after “also recorded” stand apart in the source; their conditions may differ. Values belong to the molecule of their own block, whether it stands above or below them.

Assays:
Daudi-luc cells [1] = assay: ADCC (51Cr release) of Daudi-luc cells; type: cell-based; settings: for lysis of Daudi cells by ADCC: in words
Experimental: Daudi-luc cells, fresh multiple myeloma tumor cells, fresh Plasma Cell Leukemia tumor cells and JK6L and AMO-1 multiple myeloma cells were collected (5×10^6 cells) in RPMI^++ (RPMI 1640 culture medium supplemented with 10% cosmic calf serum (HyClone, Logan, UT, USA)), to which 100 μCi ^51Cr (Chromium-51; Amersham Biosciences Europe GmbH, Roosendaal, The Netherlands) was added, and the mixture was incubated in a 37° C. water bath for 1 hr. After washing of the cells (twice in PBS, 1500 rpm, 5 min), the cells were resuspended in RPMI^++ and counted by trypan blue exclusion. Cells were brought at concentration of 1×10^5 cells/ml.
Fresh peripheral blood mononuclear cells (healthy volunteers, UMC Utrecht, Utrecht, The Netherlands) were isolated from 40 ml of heparin blood by Ficoll (Bio Whittaker; lymphocyte separation medium, cat 17-829E) according to the manufacturer's instructions. After resuspension of cells in RPMI^++, cells were counted by trypan blue exclusion and brought at concentration of 1×10^7 cells/ml.
50 μl of ^51Cr-labeled targets cells were pipetted into 96-well plates, and 50 μl of antibody was added, diluted in RPMI^++ (final concentrations 10, 1, 0.1, 0.01 μg/ml). Cells were incubated (RT, 15 min), and 50 μl effector cells were added, resulting in an effector to target ratio of 100:1 (for determination of maximal lysis, 100 μl 5% Triton-X100 was added instead of effector cells; for determination of spontaneous lysis, 50 μl target cells and 100 μl RPMI++ were used). Cells were spun down (500 rpm, 5 min), and incubated (37° C., 5% CO2, 4 hr). After spinning down cells (1500 rpm, 5 min), 100 μl of supernatant was harvested into micronic tubes, and counted in gamma counter. The percentage specific lysis was calculated as follows:
(cpm sample−cpm target cells only)/(cpm maximal lysis−cpm target cells only)
wherein cpm is counts per minute.

[2] = tested on: fresh plasma cell leukemia tumor cells; assay: ADCC set up II, plasma cell leukemia tumor cells; type: cell-based, human; settings: in words
Experimental: Human blood from human volunteers (university Erlangen, Erlangen, Germany) was diluted twice in RPMI 1640 and blood cells were layered on Ficoll (Lymphocyte Separation Medium […], 710 g, RT, 20 min; BioWhittaker, Cambrex Bio Science Verviers, Verviers, Belgium, cat. 17-829E, lot no. 0148 32). Peripheral blood mononuclear cells (MNCs) were collected from the interphase, washed and resuspended in RPMI 1640 culture medium supplemented with 10% FCS, 2 mM L-glutamine, 5 U/ml penicillin, 50 μg/ml streptomycin (all derived from BioWhittaker) to which 25 mM HEPES (BioWhittaker) was added.
Target B-cells (fresh plasma cell leukemia tumor cells, JK6L and AMO-1 B-cell lines, obtained from Dr. T. Valerius, University of Erlangen, Erlangen, Germany) were labeled with 20 μCi ^51Cr (Amersham Biosciences, Uppsala, Sweden) for 2 hours. After extensive washing in RPMI-10, cells were adjusted to 1×10^5 cells/ml. […] After incubation (3 hr, 37° C.), assays were stopped by centrifugation, and 51Cr release from triplicates was measured in counts per minute (cpm) in a scintillation counter. Percentage of cellular cytotoxicity was calculated using the following formula: […]
with maximal ^51Cr release determined by adding perchloric acid (3% final concentration) to target cells, and basal release was measured in the absence of sensitizing antibodies and effector cells.

Daudi-luc cells [3] = assay: Complement-dependent cytotoxicity of Daudi-luc cells; type: cell-based; settings: for CDC-mediated lysis of Daudi-luc cells: in words
Experimental: After harvesting and counting of Daudi-luc cells, the viability of the cells should be ≥90%. After washing (PBS), cells are resuspended at 2.0×10^6 cells/ml in RPMI-B (RPMI supplemented with 1% BSA). Thereafter, cells are put in 96-well round-bottom plates at 1×10^5 cells/well (50 μl/well). Then, 50 μl antibodies is added to the wells (final concentration range between 0-100 μg/ml (three-fold dilutions in RPMI-B)). After incubation (RT, 15 min), 11 μl of pooled human serum (pool of 18 healthy donors) was added to each well (37° ° C., 45 min). Wells were resuspended once and 120 μl was transferred to FACS tubes (Greiner). Then, 10 μl propidium iodide (PI; Sigma-Aldrich Chemie B.V.) was added (10 μg/ml solution) to this suspension. Lysis was detected by flow cytometry (FACScalibur™, Becton Dickinson, San Diego, CA, USA) by measurement of the percentage of dead cells (corresponds to PI-positive cells).

CHO-CD38 cells = assay: Complement-dependent cytotoxicity of CHO-CD38 cells; type: cell-based; settings: for CDC-mediated lysis of CHO-CD38 cells: in words
[4] = tested on: tumor cells obtained from different MM patients; assay: Complement-dependent cytotoxicity of tumor cells from MM patients; type: cell-based, human; settings: in words
[5] = target: T1, His-tagged extracellular domain of human CD38 (Homo sapiens, UniProt P28907); assay: Enzymatic activity of recombinant CD38 (cGDPR production); type: biochemical; settings: for cGDPribose production / reduced production of cGDPR: after 90 minutes; for inhibitory effect on the production of cGDPR: recombinant His-CD38
T1 construct: poly-His-tag (N); made in house; secreted into culture supernatant
Experimental: The enzymatic activity of human CD38 was measured in an assay essentially as described in Graeff et al., J. Biol. Chem. 269, 30260-30267 (1994). Briefly, substrate NGD^+ (80 μM) was incubated with CD38 (0.6 μg/ml His-tagged extracellular domain of human CD38, see Example 3 regarding purification of His-CD38) in a buffer containing 20 mM Tris-HCl, pH 7.0. The production of cGDPR can be monitored spectrophotometrically at the emission wavelength of 410 nm (excitation at 300 nm). In this example an excitation filter of 340±60 nm and an emission filter of 430±8 nm was used.
To test the effect of -003, -005 and -024 on the enzymatic activity of CD38, recombinant His-CD38 protein was pre-incubated for 15 min at room temperature with various concentrations (30, 3, 0.3 and 0.03 μg/ml) of the different antibodies before adding the substrate NGD^+. The production of cyclic GDP-ribose (cGDPR) was recorded at different time points after addition of […] (3, 6, 9, 12, 30, 45, 60, 75 and 90 min).

[6] = CDC, Daudi-luc cells (n = 2), Table 10
[7] = CDC, CHO-CD38 cells (n = 2), Table 10

Molecule: -005: human monoclonal IgG1 anti-CD38 antibody, VL region SEQ ID No:12 and VH region SEQ ID No:17
Maximal lysis (%) (Daudi-luc cells [1]; ADCC, Daudi target cells, n=5): 49.2% | EC50 Daudi-luc (Daudi-luc cells [1]; ADCC, Table 2 first column, effector to target ratio 100:1): 4.5 ng/mL | ADCC performance compared to rituximab (Daudi-luc cells [1]; Daudi-luc cells): slightly better than rituximab | lysis of Daudi cells by ADCC (Daudi-luc cells [1]): induce lysis by ADCC; also recorded: mediate lysis | ADCC of plasma cell leukemia primary tumor cells [2]: induce ADCC | maximum lysis (Daudi-luc cells [3]; CDC): ~60% | maximal lysis compared to TH3079 (Daudi-luc cells [3]; CDC of Daudi-luciferase cells): 2-3 times higher | % Max. lysis (Daudi-luc cells [3]; [6]): 70.5 ± 7.78% | EC50 (Daudi-luc cells [3]; [6]): 0.39 ± 0.00 µg/mL | EC50 Daudi-luc (Daudi-luc cells [3]; CDC, Table 3): 0.33 µg/mL | CDC-mediated lysis of Daudi-luc cells (Daudi-luc cells [3]): lysis of Daudi-luc cells is induced | % Max. lysis (CHO-CD38 cells; [7]): 76.5 ± 3.54% | EC50 (CHO-CD38 cells; [7]): 0.15 ± 0.007 µg/mL | EC50 CD38-CHO (CHO-CD38 cells; CDC, Table 3): 0.14 µg/mL | CDC-mediated lysis of CHO-CD38 cells (CHO-CD38 cells): lysis is induced; also recorded: induce CDC-mediated lysis | CDC-mediated lysis of MM patient tumor cells [4]: CDC-mediated lysis is observed | cGDPribose production ([5]; 0.03 μg/ml antibody): 102 % of NGD control | cGDPribose production ([5]; 0.3 μg/ml antibody): 98 % of NGD control | cGDPribose production ([5]; 3 μg/ml antibody): 66 % of NGD control | reduced production of cGDPR ([5]; 3 μg/ml): 34% | cGDPribose production ([5]; 30 μg/ml antibody): 68 % of NGD control | reduced production of cGDPR ([5]; 30 μg/ml): 32% | inhibitory effect on the production of cGDPR [5]: pronounced inhibitory effect

cGDPribose production ([5]; 0.03 μg/ml antibody): 105 % of NGD control | cGDPribose production ([5]; 0.3 μg/ml antibody): 104 % of NGD control | cGDPribose production ([5]; 3 μg/ml antibody): 100 % of NGD control | cGDPribose production ([5]; 30 μg/ml antibody): 99 % of NGD control | inhibitory effect on the production of cGDPR [5]: No inhibitory effect
B1: -024: human monoclonal IgG1 anti-CD38 antibody, VL region SEQ ID No:22 and VH region SEQ ID No:27 (antibody, listed as Homo sapiens, V domains shown)
VH: EVQLVQSGAEVKKPGESLKISCKGSGYSFSNYWIGWVRQMPGKGLEWMGIIYPHDSDARYSPSFQGQVTFSADKSISTAYLQWSSLKASDTAMYYCARHVGWGSRYWYFDLWGRGTLVTVSS
VL: EIVLTQSPATLSLSPGERATLSCRASQSVSSYLAWYQQKPGQAPGLLIYDASNRASGIPARFSGSGSGTDFTLTISSLEPEDFAVYYCQQRSNWPLTFGGGTKVEIK
lysis of Daudi cells by ADCC (Daudi-luc cells [1]): induce lysis by ADCC | ADCC of plasma cell leukemia primary tumor cells [2]: induce ADCC | CDC-mediated lysis of Daudi-luc cells (Daudi-luc cells [3]): does not induce CDC | CDC-mediated lysis of CHO-CD38 cells (CHO-CD38 cells): lysis is induced | CDC-mediated lysis of MM patient tumor cells [4]: induced lysis
